{
  "source": "patent US20080305212A1",
  "binders": {"B1": {"name": "Bowman-Birk inhibitor (commercial preparation, Cat # T-9777, Sigma-Aldrich) (protein, UniProt P01055 40-110, looked up)", "chain": "DDESSKPCCDQCACTKSNPPQCRCSDMRLNSCHSACKSCICALSYPAQCFCVDITDFCYEPCKPSEDDKEN"}},
  "assay_in_all_cases": "cell-based or functional assay",
  "key": {"[1]": {"molecular_target": "T1, Trypsin-like protease (TL5) from Fusarium solani (Fusarium solani)", "T1 sequence": "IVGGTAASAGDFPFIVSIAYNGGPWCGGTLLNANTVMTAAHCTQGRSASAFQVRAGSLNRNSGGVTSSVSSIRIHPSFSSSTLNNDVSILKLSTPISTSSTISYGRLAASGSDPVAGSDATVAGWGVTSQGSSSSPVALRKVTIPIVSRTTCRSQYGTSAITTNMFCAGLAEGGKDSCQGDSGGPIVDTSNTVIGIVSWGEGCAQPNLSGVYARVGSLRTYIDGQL"}, "[2]": {"molecular_target": "T2, Trypsin-like protease (TL6) from Fusarium cf. solani (Fusarium cf. solani)", "T2 sequence": "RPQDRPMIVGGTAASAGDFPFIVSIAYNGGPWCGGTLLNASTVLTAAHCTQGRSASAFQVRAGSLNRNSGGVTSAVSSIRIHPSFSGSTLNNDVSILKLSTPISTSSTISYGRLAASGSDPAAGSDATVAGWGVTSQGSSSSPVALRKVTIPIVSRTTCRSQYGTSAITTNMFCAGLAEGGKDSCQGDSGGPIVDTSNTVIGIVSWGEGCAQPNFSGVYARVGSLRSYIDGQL"}, "bovine trypsin (bovine)": {"molecular_target": "bovine trypsin (bovine) (UniProt P00760)"}, "[3]": {"molecular_target": "T3, Trypsin-like protease (TL1) from Fusarium oxysporum (Fusarium oxysporum) (UniProt P35049)", "T3 sequence": "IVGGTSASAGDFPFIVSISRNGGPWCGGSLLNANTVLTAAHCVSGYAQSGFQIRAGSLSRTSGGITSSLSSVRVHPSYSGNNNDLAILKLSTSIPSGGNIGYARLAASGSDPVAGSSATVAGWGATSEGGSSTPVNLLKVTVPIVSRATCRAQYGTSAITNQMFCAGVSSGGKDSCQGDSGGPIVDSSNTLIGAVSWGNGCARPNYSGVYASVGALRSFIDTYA"}, "[4]": {"molecular_target": "porcine trypsin (porcine) (UniProt P00761)"}},
  "data": [
    {"binder": "B1", "values": [
      {"measurement": "% residual activity at 0.00048 mg/ml Bowman-Birk inhibitor (% residual activity)", "setting": "[1]", "result": 78},
      {"measurement": "% residual activity at 0.00097 mg/ml Bowman-Birk inhibitor (% residual activity)", "setting": "[1]", "result": 71},
      {"measurement": "% residual activity at 0.00195 mg/ml Bowman-Birk inhibitor (% residual activity)", "setting": "[1]", "result": 57},
      {"measurement": "% residual activity at 0.0039 mg/ml Bowman-Birk inhibitor (% residual activity)", "setting": "[1]", "result": 55},
      {"measurement": "% residual activity at 0.0078 mg/ml Bowman-Birk inhibitor (% residual activity)", "setting": "[1]", "result": 43},
      {"measurement": "% residual activity at 0.0156 mg/ml Bowman-Birk inhibitor (% residual activity)", "setting": "[1]", "result": 29},
      {"measurement": "% residual activity at 0.0313 mg/ml Bowman-Birk inhibitor (% residual activity)", "setting": "[1]", "result": 19},
      {"measurement": "% residual activity at 0.0625 mg/ml Bowman-Birk inhibitor (% residual activity)", "setting": "[1]", "result": 7.2},
      {"measurement": "% residual activity at 0.125 mg/ml Bowman-Birk inhibitor (% residual activity)", "setting": "[1]", "result": 3.1},
      {"measurement": "% residual activity at 0.25 mg/ml Bowman-Birk inhibitor (% residual activity)", "setting": "[1]", "result": 1.2},
      {"measurement": "% residual activity at 0.5 mg/ml Bowman-Birk inhibitor (% residual activity)", "setting": "[1]", "result": 0.5},
      {"measurement": "% residual activity at 0.00048 mg/ml Bowman-Birk inhibitor (% residual activity)", "setting": "[2]", "result": 104},
      {"measurement": "% residual activity at 0.00097 mg/ml Bowman-Birk inhibitor (% residual activity)", "setting": "[2]", "result": 107},
      {"measurement": "% residual activity at 0.00195 mg/ml Bowman-Birk inhibitor (% residual activity)", "setting": "[2]", "result": 94},
      {"measurement": "% residual activity at 0.0039 mg/ml Bowman-Birk inhibitor (% residual activity)", "setting": "[2]", "result": 97},
      {"measurement": "% residual activity at 0.0078 mg/ml Bowman-Birk inhibitor (% residual activity)", "setting": "[2]", "result": 84},
      {"measurement": "% residual activity at 0.0156 mg/ml Bowman-Birk inhibitor (% residual activity)", "setting": "[2]", "result": 66},
      {"measurement": "% residual activity at 0.0313 mg/ml Bowman-Birk inhibitor (% residual activity)", "setting": "[2]", "result": 55},
      {"measurement": "% residual activity at 0.0625 mg/ml Bowman-Birk inhibitor (% residual activity)", "setting": "[2]", "result": 26},
      {"measurement": "% residual activity at 0.125 mg/ml Bowman-Birk inhibitor (% residual activity)", "setting": "[2]", "result": 9.5},
      {"measurement": "% residual activity at 0.25 mg/ml Bowman-Birk inhibitor (% residual activity)", "setting": "[2]", "result": 2.9},
      {"measurement": "% residual activity at 0.5 mg/ml Bowman-Birk inhibitor (% residual activity)", "setting": "[2]", "result": 1.3},
      {"measurement": "% residual activity at 0.00048 mg/ml Bowman-Birk inhibitor (% residual activity)", "setting": "bovine trypsin (bovine)", "result": 0.9},
      {"measurement": "% residual activity at 0.00097 mg/ml Bowman-Birk inhibitor (% residual activity)", "setting": "bovine trypsin (bovine)", "result": 5.3},
      {"measurement": "% residual activity at 0.00195 mg/ml Bowman-Birk inhibitor (% residual activity)", "setting": "bovine trypsin (bovine)", "result": 0.1},
      {"measurement": "% residual activity at 0.0039 mg/ml Bowman-Birk inhibitor (% residual activity)", "setting": "bovine trypsin (bovine)", "result": -0.4},
      {"measurement": "% residual activity at 0.0078 mg/ml Bowman-Birk inhibitor (% residual activity)", "setting": "bovine trypsin (bovine)", "result": 0},
      {"measurement": "% residual activity at 0.0156 mg/ml Bowman-Birk inhibitor (% residual activity)", "setting": "bovine trypsin (bovine)", "result": -1.5},
      {"measurement": "% residual activity at 0.0313 mg/ml Bowman-Birk inhibitor (% residual activity)", "setting": "bovine trypsin (bovine)", "result": 0.1},
      {"measurement": "% residual activity at 0.0625 mg/ml Bowman-Birk inhibitor (% residual activity)", "setting": "bovine trypsin (bovine)", "result": 0},
      {"measurement": "% residual activity at 0.125 mg/ml Bowman-Birk inhibitor (% residual activity)", "setting": "bovine trypsin (bovine)", "result": 0},
      {"measurement": "% residual activity at 0.25 mg/ml Bowman-Birk inhibitor (% residual activity)", "setting": "bovine trypsin (bovine)", "result": 0},
      {"measurement": "% residual activity at 0.5 mg/ml Bowman-Birk inhibitor (% residual activity)", "setting": "bovine trypsin (bovine)", "result": 0},
      {"measurement": "% residual activity at 0.00048 mg/ml Bowman-Birk inhibitor (% residual activity)", "setting": "[3]", "result": 117},
      {"measurement": "% residual activity at 0.00097 mg/ml Bowman-Birk inhibitor (% residual activity)", "setting": "[3]", "result": 111},
      {"measurement": "% residual activity at 0.00195 mg/ml Bowman-Birk inhibitor (% residual activity)", "setting": "[3]", "result": 103},
      {"measurement": "% residual activity at 0.0039 mg/ml Bowman-Birk inhibitor (% residual activity)", "setting": "[3]", "result": 109},
      {"measurement": "% residual activity at 0.0078 mg/ml Bowman-Birk inhibitor (% residual activity)", "setting": "[3]", "result": 82},
      {"measurement": "% residual activity at 0.0156 mg/ml Bowman-Birk inhibitor (% residual activity)", "setting": "[3]", "result": 61},
      {"measurement": "% residual activity at 0.0313 mg/ml Bowman-Birk inhibitor (% residual activity)", "setting": "[3]", "result": 32},
      {"measurement": "% residual activity at 0.0625 mg/ml Bowman-Birk inhibitor (% residual activity)", "setting": "[3]", "result": 13},
      {"measurement": "% residual activity at 0.125 mg/ml Bowman-Birk inhibitor (% residual activity)", "setting": "[3]", "result": 5.8},
      {"measurement": "% residual activity at 0.25 mg/ml Bowman-Birk inhibitor (% residual activity)", "setting": "[3]", "result": 2.2},
      {"measurement": "% residual activity at 0.5 mg/ml Bowman-Birk inhibitor (% residual activity)", "setting": "[3]", "result": 0.8},
      {"measurement": "% residual activity at 0.00048 mg/ml Bowman-Birk inhibitor (% residual activity)", "setting": "[4]", "result": 11},
      {"measurement": "% residual activity at 0.00097 mg/ml Bowman-Birk inhibitor (% residual activity)", "setting": "[4]", "result": 9.4},
      {"measurement": "% residual activity at 0.00195 mg/ml Bowman-Birk inhibitor (% residual activity)", "setting": "[4]", "result": 8.3},
      {"measurement": "% residual activity at 0.0039 mg/ml Bowman-Birk inhibitor (% residual activity)", "setting": "[4]", "result": 6.2},
      {"measurement": "% residual activity at 0.0078 mg/ml Bowman-Birk inhibitor (% residual activity)", "setting": "[4]", "result": 3.2},
      {"measurement": "% residual activity at 0.0156 mg/ml Bowman-Birk inhibitor (% residual activity)", "setting": "[4]", "result": 2.2},
      {"measurement": "% residual activity at 0.0313 mg/ml Bowman-Birk inhibitor (% residual activity)", "setting": "[4]", "result": 1},
      {"measurement": "% residual activity at 0.0625 mg/ml Bowman-Birk inhibitor (% residual activity)", "setting": "[4]", "result": 0.4},
      {"measurement": "% residual activity at 0.125 mg/ml Bowman-Birk inhibitor (% residual activity)", "setting": "[4]", "result": 0.2},
      {"measurement": "% residual activity at 0.25 mg/ml Bowman-Birk inhibitor (% residual activity)", "setting": "[4]", "result": 0.1},
      {"measurement": "% residual activity at 0.5 mg/ml Bowman-Birk inhibitor (% residual activity)", "setting": "[4]", "result": 0.1}
    ]}
  ]
}
